Measurements: US20210254072, “TNF-TARGETING APTAMERS AND USES THEREOF FOR TREATMENT OR DIAGNOSING TNF-RELATED INFLAMMATORY DISEASES” (Academia Sinica, published 2021)

Experiments:
[1] = molecular target: BSA (bovine serum albumin) (UniProt P02769 P02769:25-607); assay: filter; BSA 140 nM used as reference (1 fold)
Method: (§1) Human TNF-α proteins (0, 8.75, 17.5, 35, 70, 140 nM, R&D Systems) were incubated with aptTNF-α (50 nM) at 37° C. for 1 h. In addition, mouse TNF-α proteins (140 nM) or BSA (140 nM) were incubated with aptTNF-α (50 nM) or aptTNF-α-PEG (50 nM) as well. The protein-bound aptamers were then collected by nitrocellulose filter and eluted by heating. The amount of the eluted aptamers was quantified by quantitative PCR (LightCycler 480 system, Roche Applied Science, Mannheim, Germany) The dissociated constant (Kd) was calculated by GraphPad Prism 5 (GraphPad Software, San Diego, Calif.), using the equation Y=Amax×X/(Kd+X). The relative amounts of protein-binding aptamers (human TNF-α proteins and mouse TNF-α proteins) were represented as fold changes, using BSA as the reference (1 fold).

TNF-alpha = TNF-alpha (Mus musculus, UniProt P06804 P06804:80-235); assay: filter; 140 nM protein, 50 nM aptamer; fold over BSA, value only in figure; details: chain copies: 3 (inferred)
Chain of TNF-alpha (P06804 80-235, one chain of several): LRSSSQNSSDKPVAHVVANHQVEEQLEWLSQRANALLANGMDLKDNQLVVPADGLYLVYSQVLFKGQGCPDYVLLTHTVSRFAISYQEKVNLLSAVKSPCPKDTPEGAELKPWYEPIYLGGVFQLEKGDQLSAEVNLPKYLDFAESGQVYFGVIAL
Method: as §1

Chain of BSA (bovine serum albumin) (P02769 25-607, one chain of several): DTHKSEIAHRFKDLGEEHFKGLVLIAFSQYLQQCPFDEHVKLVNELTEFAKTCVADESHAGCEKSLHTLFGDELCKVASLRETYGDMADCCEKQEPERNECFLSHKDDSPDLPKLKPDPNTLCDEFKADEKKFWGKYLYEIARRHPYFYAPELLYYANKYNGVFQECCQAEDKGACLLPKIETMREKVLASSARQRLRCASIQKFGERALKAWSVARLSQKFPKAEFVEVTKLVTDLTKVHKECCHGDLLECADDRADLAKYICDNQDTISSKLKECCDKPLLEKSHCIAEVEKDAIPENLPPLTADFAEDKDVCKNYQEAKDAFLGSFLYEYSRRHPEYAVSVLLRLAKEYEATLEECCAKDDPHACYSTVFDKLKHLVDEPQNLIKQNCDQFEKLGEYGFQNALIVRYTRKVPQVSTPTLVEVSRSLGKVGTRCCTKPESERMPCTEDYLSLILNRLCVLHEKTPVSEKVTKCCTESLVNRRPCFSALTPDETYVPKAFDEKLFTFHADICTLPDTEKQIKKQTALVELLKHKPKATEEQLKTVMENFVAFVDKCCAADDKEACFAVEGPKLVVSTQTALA

Binder	binding signal [1]	binding result (TNF-alpha)
GCGCCACTACAGGGGAGCTGCCATTCGAATAGGTGGGCCGC (ssDNA) [aptTNF-alpha]	1 fold	binds
GCGCCACTACAGGGGAGCTGCCATTCGAATAGGTGGGCCGC (ssDNA, two copies of amine-labeled SEQ ID NO: 1 linked by 20 kDa PEG (NHS-PEG-NHS)) [aptTNF-alpha-PEG (dimer)]	1 fold	binds
